Measurements taken from publication doi:10.1101/2022.08.03.502687 (bioRxiv, 2022).
Where a chain is given by its changes, count along the chain named. Names and notes keep the numbering of the source.

B1: CLC-ec1 'WT' background (C85A/H234C) treated with glutaraldehyde (natural protein)
chain: MKTDTPSLETPQAARLRRRQLIRQLLERDKTPLAILFMAAVVGTLVGLAAVAFDKGVAWLQNQRMGALVHTADNYPLLLTVAFLASAVLAMFGYFLVRKYAPEAGGSGIPEIEGALEDQRPVRWWRVLPVKFFGGLGTLGGGMVLGREGPTVQIGGNIGRMVLDIFRLKGDEARHTLLATGAAAGLAAAFNAPLAGILFIIEEMRPQFRYTLISIKAVFIGVIMSTIMYRIFNCEVALIDVGKLSDAPLNTLWLYLILGIIFGIFGPIFNKWVLGMQDLLHRVHGGNITKWVLMGGAIGGLCGLLGFVAPATSGGGFNLIPIATAGNFSMGMLVFIFVARVITTLLCFSSGAPGGIFAPMLALGTVLGTAFGMVAVELFPQYHLEAGTFAIAGMGALLAASIRAPLTGIILVLEMTDNYQLILPMIITGLGATLLAQFTGGKPLYSAILARTLAKQEAEQLARSKAASASENT
modifications: Cy5-maleimide on H234C; cross-linked with glutaraldehyde (residues not stated)
B2: CLC-ec1 R230C/L249C on the 'WT' background (C85A/H234C), disulfide cross-linked (natural protein)
chain: B1 chain with R230C, L249C

Biological target: the molecule itself
Experiment: single-molecule photobleaching subunit capture

Row | Protein | binding result
1 | B1 | binds
2 | B2 | binds
